Results: paper PMC6651773, “2-Ketogluconate Kinase from Cupriavidus necator H16: Purification, Characterization, and Exploration of Its Substrate Specificity” (Molecules, 2019)

Key:
Test in all cases: purified protein
Assay type in all cases: biochemical, Cupriavidus necator
purified protein [1] = substrate: O=C(O)C(=O)[C@@H](O)[C@H](O)[C@H](O)CO; settings: ATP 1.25 mM, Mg2+ 5 mM, Tris-HCl pH 8.0, KCl 50 mM, 25 °C, sigmoid, Hill n = 1.4
purified protein [2] = substrate: Nc1ncnc2c1ncn2[C@@H]1O[C@H](COP(=O)(O)OP(=O)(O)OP(=O)(O)O)[C@@H](O)[C@H]1O; settings: KG 1.25 mM, Mg2+ 5 mM, Tris-HCl pH 8.0, KCl 50 mM, 25 °C
purified protein [3] = substrate: O=C(O)C(=O)C[C@@H](O)[C@H](O)CO; settings: ATP 1.25 mM, Mg2+ 5 mM, Tris-HCl pH 8.0, KCl 50 mM, 25 °C
purified protein [4] = substrate: O=C(O)C(=O)C[C@H](O)[C@H](O)CO; settings: ATP 1.25 mM, Mg2+ 5 mM, Tris-HCl pH 8.0, KCl 50 mM, 25 °C
purified protein [5] = substrate: O=C(O)C(=O)[C@H](O)[C@@H](O)[C@H](O)CO; settings: ATP 1.25 mM, Mg2+ 5 mM, Tris-HCl pH 8.0, KCl 50 mM, 25 °C

B1: KGUKCnec (2-ketogluconate kinase from C. necator H16) (Cupriavidus necator H16) (protein)
chain: MSTDLDVVTLGEAMLMLVAGEAGPLEGAQTFHKRTAGAETNVAIGLSRLGLKVGWASRLGDDSMARYLLGEMQREGVDCSQVVCEPGERTGFQFKGRVDDGSDPPVEYHRRGSAASRMNPEHLDGRWLRRSRHLHVTGVFPALAAGTQAATRQAIATMQAAGRTISFDPNLRPTLWASPELMRETLNDLAQQCDWVLPGIEEGRFLTGHAEPERIAAFYRARGARLVVVKLGADGAYFDGEAGTGHVEAFSVEHVVDTVGAGDGFAVGVISALLEGRPVRDAVRRGAWIGARAVQVRGDTEGLPTHAQLAAASL
notes: full-length ORF (PCR primers kguK-NdeI 5' […] 3' / kguK-BamHI 5' […] 3'
B1 gave a K0.5 (purified protein [1]) of 0.35 ± 0.03 mM, a Vmax (purified protein [1]) of 10.4 µmol/min/mg and a kcat (purified protein [1]) of 5.8 ± 0.2 s⁻¹. For the same protein, the kcat/Km (purified protein [1]) was 16800 ± 1300 M⁻¹ s⁻¹, the Km (purified protein [2]) was 73 ± 2 µM and the Vmax (purified protein [2]) was 10.2 µmol/min/mg. It also gave a kcat (purified protein [2]) of 5.71 ± 0.05 s⁻¹, a kcat/Km (purified protein [2]) of 78200 ± 2500 M⁻¹ s⁻¹ and a Km (purified protein [3]) of 25000 ± 4000 µM. The Vmax (purified protein [3]) was 3.7 µmol/min/mg, the kcat (purified protein [3]) was 2.1 ± 0.2 s⁻¹ and the kcat/Km (purified protein [3]) was 83 ± 20 M⁻¹ s⁻¹. It also gave a Km (purified protein [4]) of 1400 ± 200 µM, a Vmax (purified protein [4]) of 18.2 µmol/min/mg and a kcat (purified protein [4]) of 10.2 ± 0.5 s⁻¹. The kcat/Km (purified protein [4]) was 7370 ± 970 M⁻¹ s⁻¹, the Km (purified protein [5]) was 4000 ± 1000 µM and the Vmax (purified protein [5]) was 1.9 µmol/min/mg. It also gave a kcat (purified protein [5]) of 1.1 ± 0.1 s⁻¹ and a kcat/Km (purified protein [5]) of 246 ± 70 M⁻¹ s⁻¹.
